Laboratory results as given in patent publication US20030082156A1 (priority 1999, published 2003).
Like-named read-outs stand apart in the source and are kept apart here.

Experiments:
[1] = target: dEV8 (peptide name as printed; residues not given) peptide on H-2Kb (mouse)
[2] = target: dEV8 (peptide name as printed; residues not given) peptide on H-2Kb (mouse); remark: listed apart in the source
[3] = target: VSV8/K^b (as in the statement of the monomeric affinity; construct not described) (vesicular stomatitis virus; mouse) (UniProt P01901); assay: method not stated; BIAcore implied by the sentence
Sequence of UniProt P01901 (P01901 22-305): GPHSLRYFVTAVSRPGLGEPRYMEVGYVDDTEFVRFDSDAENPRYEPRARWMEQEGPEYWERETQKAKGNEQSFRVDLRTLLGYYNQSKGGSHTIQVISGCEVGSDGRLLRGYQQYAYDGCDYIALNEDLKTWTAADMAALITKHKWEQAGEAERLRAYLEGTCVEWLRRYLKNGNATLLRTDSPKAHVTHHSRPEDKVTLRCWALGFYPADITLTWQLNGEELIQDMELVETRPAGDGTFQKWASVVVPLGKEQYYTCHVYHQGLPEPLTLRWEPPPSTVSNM

[4] = target: hen egg conalbumin (CA) peptide on I-Ak (mouse); assay: single-chain
[5] = system: N15 TCRs on immature thymocytes; type: cell-based, mouse
[6] = system: DP thymocytes of N15 tg Rag-2−/− H-2b mice; conditions: mouse, in vivo
N15 TCR = type: binding, mouse; conditions: read-out: monomeric affinity of the N15 TCR for peptide/K^b
[7] = target: vesicular stomatitis virus nuclear protein (VSV8) peptide on H-2Kb (mouse)
[8] = target: vesicular stomatitis virus nuclear protein (VSV8) peptide on H-2Kb (mouse); remark: listed apart in the source
[9] = target: vesicular stomatitis virus nuclear protein (VSV8) peptide on H-2Kb (mouse); assay: full-length, on cells
[10] = target: Tax (peptide residues not given) peptide on HLA-A2 (human)
[11] = target: Tax (peptide residues not given) peptide on HLA-A2 (human); remark: listed apart in the source
[12] = target: CA/I-A^k: hen egg conalbumin peptide (residues 134-146) fused by a flexible linker to the N-terminus of the I-A^k β chain, with the I-A^k α chain; leucine zippers cleaved off by thrombin (hen; mouse) (UniProt P02789); assay: method not stated; cited as refs. 5, 26 ('Our unpublished results')
[13] = target: VSV8 octapeptide (RGYVYQGL) bound to K^b on presenting cells (vesicular stomatitis virus; mouse) (UniProt P01887); assay: cell-based or functional assay

Substance 2C TCR has a Kd [1] of 100 µM and an orientation angle of the TCR on the pMHC [2] of 45 °.
For “N15 TCR (as in the statement of its monomeric affinity; construct not described)”, the Kd [3] was > 200 µM.
D10 TCR gave an orientation angle of the TCR on the pMHC [4] of 80 °.
RGYVYQGL [VSV8] was tested, and the “fraction of DP thymocytes dulled” value [5] was ~5%, the “thymocytes falling in the expected CD4/CD8 expression range of DP thymocytes” value [5] was 10-26% and the “surviving thymocytes that were DP” value [6] was < 10%. For the same substance, the “% of DP thymocytes” value ([6]; iv) was 14% and the Kd (N15 TCR) was > 200 µM.
N15 TCR was tested, and the Kd [7] was > 200 µM, the orientation angle of the TCR on the pMHC [8] was 54 ° and the % CD8 SP thymocytes after 7 days of FTOC [9] was 1%. It also gave a % DP thymocytes 24 h after injection [9] of 14%.
For A6 TCR, the orientation angle of the TCR on the pMHC [10] was 56 °.
Substance B7 TCR has an orientation angle of the TCR on the pMHC [11] of 70 °.
Substance “scD10 TCR (single chain V module of the D10 TCR: Vβ8.2-linker-Vα2, 237 residues, Cys235Ser)” has a Kd [12] of 1 to 2 µM.
“N15 TCR (on thymocytes and splenic T cells of N15 TCR transgenic mice)” gave a DP thymocyte dulling assay: fraction of DP thymocytes dulled [13] of 5%.
